Source: the supplement of paper PMC10724198
± gives the standard deviation of the averaged measurements.

Test system: Saccharomyces cerevisiae
Assay: protein stability index of tFT-peptide fusion (C-terminal peptide) (PSI (0-1 scale)); higher = more stable (slower turnover)
Details: genetic background: wild type; temperature: 30 C
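Further: PSI is a weighted mean of sequencing reads over stability bins, variants kept only with over 10 reads, mCherry proximal and sfGFP distal, peptide attached via GGGS linker.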

Sequence	protein stability index
SPLTTFPPHRVS	0.711 ± 0.014
SPPAPPLALPPP	0.737 ± 0.057
SPPASFPLPPPP	0.6802 ± 0.0015
SPPCPFPTPACP	0.7165 ± 0.002
SPPCPLPLPPPP	0.626 ± 0.057
SPPGPLPPRRPF	0.725 ± 0.074
SPPHTGMLRLLT	0.7 ± 0.063
SPPLPARSQSSI	0.708 ± 0.029
SPPLPSPPTLRL	0.701 ± 0.015
SPPLRPPAPLVL	0.631 ± 0.14
SPPPAPPPPPQT	0.66492 ± 0.00031
SPPPAPRPPLPP	0.709 ± 0.041
SPPPFPHPHQLP	0.726 ± 0.029
SPPPILPSSPSS	0.698 ± 0.087
SPPPLDSFPFIT	0.659 ± 0.051
SPPPLHPPPPAL	0.637 ± 0.046
SPPPMPLPLIPL	0.663 ± 0.066
SPPPPGPLPPPS	0.718 ± 0.038
SPPPPILPCKPL	0.716 ± 0.031
SPPPPPFCPLPA	0.646 ± 0.014
SPPPPPPSYPAH	0.772 ± 0.051
SPPPPTLPPAYL	0.6577 ± 0.0025
SPPPPTPPPPPA	0.718 ± 0.045
SPPPSRHPPPRL	0.708 ± 0.016
SPPRLPPLAAPP	0.676 ± 0.07
SPPRPPRPPRRA	0.599 ± 0.02

Sequence	protein stability index
SPPRSPPDFVPF	0.684 ± 0.0088
SPPRSVSVGVHK	0.637 ± 0.03
SPPSPAFTPAPF	0.669 ± 0.077
SPPTRAPISSIS	0.733 ± 0.0087
SPPVRLPSASTV	0.681 ± 0.036
SPPVTASLCLFS	0.692 ± 0.016
SPRFVPPPAILR	0.558 ± 0.0088
SPRFYSFRPSPP	0.695 ± 0.019
SPRGLQSAPSGI	0.7399 ± 0.0057
SPRPAPPRSTPP	0.67 ± 0.063
SPSAVPPALLYS	0.747 ± 0.2
SPSGLPLHFSFL	0.704 ± 0.012
SPSLPPLPRSPR	0.68 ± 0.053
SPSPPLPSPRPP	0.594 ± 0.094
SPSRPILRPRVV	0.635 ± 0.02
SPTPSPCIPSPP	0.701 ± 0.0089
SPTRALYISFFY	0.655 ± 0.075
SPYLGSALPPDR	0.628 ± 0.07
SQCGSLQIGRHL	0.714 ± 0.052
SQLERSNHGWVR	0.651 ± 0.064
SQMGRGRQRGDR	0.741 ± 0.024
SQSPPTSPAPHD	0.706 ± 0.016
SQTIRTGGLCHL	0.886 ± 0.041
SQWGRVTMNLCG	0.706 ± 0.012
SRAARLPLFYFD	0.675 ± 0.014
SRCSAGVASGVL	0.636 ± 0.0069

Sequence	protein stability index
SRCSEPVGGGGA	0.704 ± 0.085
SRGAIGGSACFR	0.652 ± 0.037
SRGRILAVRNTT	0.713 ± 0.021
SRGSTGERGRGK	0.669 ± 0.027
SRIASKNRKRKR	0.774 ± 0.024
SRKKDEGEYHRK	0.68 ± 0.036
SRLPSPFPSPPL	0.737 ± 0.019
SRLRITIRNVHS	0.629 ± 0.048
SRPFLPPSPRPA	0.757 ± 0.11
SRPLLLLPCLLP	0.643 ± 0.014
SRPLPPPLPPPP	0.628 ± 0.025
SRPPSPHPLPPP	0.656 ± 0.027
SRRERALGQQPI	0.679 ± 0.011
SRRLAFSTVLPA	0.664 ± 0.035
SRRWRPDSSRIQ	0.667 ± 0.1
SRSHSPLCPSFA	0.604 ± 0.026
SRTLYSHLLFFP	0.66 ± 0.0097
SRTPLASTPPHR	0.761 ± 0.11
SRTSRGPPFSSS	0.688 ± 0.043
SRVEVEVKIGFQ	0.6331 ± 0.0061
SRVIFSQSLSVP	0.654 ± 0.038
SRVRTIVRNGSR	0.777 ± 0.11
SRVSRGEWGVGI	0.659 ± 0.023
SRVVTSRLVLSS	0.606 ± 0.017
SRVWVGQMIRGR	0.664 ± 0.019
SSERVLVRRRGS	0.566 ± 0.12

Sequence	protein stability index
SSFGIVWKKDAI	0.736 ± 0.053
SSGAIKPDFRMA	0.7446 ± 0.005
SSGSRCQQKIRY	0.66 ± 0.11
SSLGNSFYLSPH	0.683 ± 0.033
SSLPRLGSSPRR	0.66 ± 0.019
SSLPSSLSPLTS	0.699 ± 0.024
SSLRSFPLLEHT	0.6857 ± 0.0012
SSLSFHPLPLAP	0.695 ± 0.03
SSLSPGFPLPSS	0.6989 ± 0.0014
SSLTCLLFPPGY	0.695 ± 0.012
SSNKSKNNHSNM	0.688 ± 0.031
SSNVTVLGVLYC	0.6973 ± 0.0049
SSPAPPPPSPAS	0.744 ± 0.043
SSPAYPYWTRIF	0.777 ± 0.14
SSPFPPLTTPSP	0.7245 ± 0.0044
SSPFPVPLSRPS	0.6759 ± 0.0032
SSPLTPAPLCSS	0.702 ± 0.1
SSPLYSLLVLFQ	0.54 ± 0.037
SSPPFPLSLPLY	0.682 ± 0.0017
SSPTSSAPPPFL	0.697 ± 0.022
SSPYPGNVVTST	0.7133 ± 0.0015
SSRAGVRRPHSR	0.685 ± 0.053
SSRCRGYLFVDG	0.738 ± 0.043
